Measurements from IntAct's records for PubMed 19804756.

Tests used:
[1] = molecular target: nbs1_schpo nbs1 (UniProt O43070)
[2] = molecular target: nbn_human NBN (UniProt O60934)
nbn_human NBN, sequence (O60934 whole entry): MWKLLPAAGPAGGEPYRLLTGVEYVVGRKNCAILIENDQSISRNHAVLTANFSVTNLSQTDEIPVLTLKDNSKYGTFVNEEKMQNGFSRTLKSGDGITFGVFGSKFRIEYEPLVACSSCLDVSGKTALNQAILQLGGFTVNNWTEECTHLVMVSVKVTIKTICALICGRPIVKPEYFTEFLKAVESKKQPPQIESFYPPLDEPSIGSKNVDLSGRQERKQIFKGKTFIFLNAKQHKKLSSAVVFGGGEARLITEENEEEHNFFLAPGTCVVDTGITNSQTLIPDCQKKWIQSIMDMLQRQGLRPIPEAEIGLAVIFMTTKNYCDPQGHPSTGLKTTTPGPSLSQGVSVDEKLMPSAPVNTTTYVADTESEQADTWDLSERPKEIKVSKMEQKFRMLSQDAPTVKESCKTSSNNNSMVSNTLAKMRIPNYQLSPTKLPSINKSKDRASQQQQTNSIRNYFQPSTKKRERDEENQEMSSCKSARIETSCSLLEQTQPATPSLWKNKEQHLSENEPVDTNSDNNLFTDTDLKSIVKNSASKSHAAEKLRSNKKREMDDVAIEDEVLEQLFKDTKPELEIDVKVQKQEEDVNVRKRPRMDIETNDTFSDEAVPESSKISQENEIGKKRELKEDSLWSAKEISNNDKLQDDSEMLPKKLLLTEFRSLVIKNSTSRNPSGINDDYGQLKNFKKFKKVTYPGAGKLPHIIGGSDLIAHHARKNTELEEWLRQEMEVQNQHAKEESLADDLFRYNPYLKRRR

nbs1_schpo nbs1, sequence (O43070 whole entry): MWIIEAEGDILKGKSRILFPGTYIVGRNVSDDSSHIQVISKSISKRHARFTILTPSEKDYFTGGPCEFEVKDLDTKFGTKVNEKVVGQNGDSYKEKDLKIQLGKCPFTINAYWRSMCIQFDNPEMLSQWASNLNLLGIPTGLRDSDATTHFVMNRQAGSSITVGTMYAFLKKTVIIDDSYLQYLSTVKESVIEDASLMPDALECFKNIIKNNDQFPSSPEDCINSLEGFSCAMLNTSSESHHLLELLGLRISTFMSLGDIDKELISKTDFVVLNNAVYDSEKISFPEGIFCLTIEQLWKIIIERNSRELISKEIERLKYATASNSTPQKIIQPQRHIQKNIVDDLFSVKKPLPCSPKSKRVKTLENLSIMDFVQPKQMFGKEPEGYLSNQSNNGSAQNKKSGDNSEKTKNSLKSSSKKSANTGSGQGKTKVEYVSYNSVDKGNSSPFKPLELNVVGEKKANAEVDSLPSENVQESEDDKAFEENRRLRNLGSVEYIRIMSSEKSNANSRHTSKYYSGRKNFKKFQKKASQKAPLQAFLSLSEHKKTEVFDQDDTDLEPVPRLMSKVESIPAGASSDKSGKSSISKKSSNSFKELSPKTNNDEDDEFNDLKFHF

Substance | effect of a mutation on the interaction [1] | effect of a mutation on the interaction [2]
Mediator of DNA damage checkpoint protein 1 (Homo sapiens), Q14676 E334A | decreasing interaction | –
Mediator of DNA damage checkpoint protein 1 (Homo sapiens), Q14676 T331S | – | decreasing interaction
